Measurements published in US20090226434A1.
pIC50: −log10 of the molar value.

Tests used:
[1] = biological target: FcγRIIIa (CD16) on Natural Killer (NK) cells (UniProt P08637); test: FACS on NK cells (CD56+) in PBMCs, antibody 20 µg/ml, FITC anti-human IgG (Fc) detection
[2] = biological target: afucosylated anti-CCR5 antibody (afucosylated Ab); test: SPR solution competition: soluble CD16a (0-1000 nM) inhibits binding of 10 nM antibody to immobilized His-CD16a
[3] = biological target: wildtype anti-CCR5 antibody (WT Ab, 8% afucosylated); test: as above
[4] = biological target: Positive Control (Table 3); test: SPR solution competition: soluble CD16a (0-1000 nM) inhibits binding of 10 nM analyte to immobilized His-CD16a

Sequence of UniProt P08637 (P08637 17-254 limits assumed): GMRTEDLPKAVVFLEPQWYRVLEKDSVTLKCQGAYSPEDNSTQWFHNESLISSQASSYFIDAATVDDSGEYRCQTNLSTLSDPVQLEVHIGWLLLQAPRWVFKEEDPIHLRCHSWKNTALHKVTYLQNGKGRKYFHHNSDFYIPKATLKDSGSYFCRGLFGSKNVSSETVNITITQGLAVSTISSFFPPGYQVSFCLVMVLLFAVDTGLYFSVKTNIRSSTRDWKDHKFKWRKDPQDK

Substance	Bmax compared to 100% Bmax for human IgG1 [1]	pIC50 [2]	pIC50 [3]	pIC50 [4]
human IgG4 (The Binding Site) (antibody)	< 30%			
soluble CD16a (from UniProt P08637 17-208) (receptor)		8.05	7.85	8.00
